Assay results as given in patent US20130052176, “APTAMER FOR NGF AND USE THEREOF” (SHIONOGI & CO., LTD, published 2013).

Columns and labels:
[1] = target: T1, NGF (nerve growth factor) (human, UniProt P01138 P01138:122-241); test: cell_activity; neurite outgrowth, NGF 0.38 nM; TF-1 IC50 0.069 nM; details: tags: human NGF; chain copies: 2
Description: (§1) The neurite outgrowth inhibitory activity of the aptamer obtained in Example 1 was evaluated by using Neuroscreen-1 cell, which is a subclone of PC-12 cells.
(§2) The cells (2500 cells per well) were cultured for one day in an RPMI-1640 medium containing 2.5% horse serum and 1.25% fetal bovine serum in a 96 well flat-bottom plate coated with collagen type IV. […] Two days later, the cytoplasm and nuclei were stained using Cellomics Neurite Outgrowth Kit (manufactured by Thermo Scientific), and neurite length per cell was measured by Cellomics ArrayScan VTI (manufactured by Thermo Scientific). With the neurite length per cell obtained by the addition of NGF alone as inhibitory activity 0%, and that of the cell obtained by NGF free culture for 2 days as inhibitory activity 100%, the inhibitory activity of the aptamer was calculated from the neurite length per cell obtained by culturing with the addition of NGF and the aptamer in mixture. When the inhibitory activity was 0% or below, ‘0%’ is indicated.

[2] = target: T1, NGF (nerve growth factor); test: cell_activity; neurite outgrowth, NGF 0.38 nM; TF-1 IC50 0.177 nM; details: tags: human NGF; chain copies: 2
Description: as §1, §2

[3] = target: T1, NGF (nerve growth factor); test: cell_activity; neurite outgrowth, NGF 0.38 nM; TF-1 IC50 0.107 nM; details: tags: human NGF; chain copies: 2
Description: as §1, §2

[4] = target: T1, NGF (nerve growth factor); test: cell_activity; neurite outgrowth, NGF 0.38 nM; TF-1 IC50 0.156 nM; details: tags: human NGF; chain copies: 2
Description: as §1, §2

[5] = target: T1, NGF (nerve growth factor); test: cell_activity; neurite outgrowth, NGF 0.38 nM; TF-1 IC50 0.203 nM; details: tags: human NGF; chain copies: 2
Description: as §1, §2

[6] = target: T1, NGF (nerve growth factor); test: cell_activity; neurite outgrowth, NGF 0.38 nM; TF-1 IC50 0.184 nM; details: tags: human NGF; chain copies: 2
Description: as §1, §2

[7] = target: T1, NGF (nerve growth factor); test: cell_activity; neurite outgrowth, NGF 0.38 nM; TF-1 IC50 0.159 nM; details: tags: human NGF; chain copies: 2
Description: as §1, §2

[8] = target: T1, NGF (nerve growth factor); test: cell_activity; neurite outgrowth, NGF 0.38 nM; TF-1 IC50 0.055 nM; details: tags: human NGF; chain copies: 2
Description: as §1, §2

[9] = target: T1, NGF (nerve growth factor); test: cell_activity; neurite outgrowth, NGF 0.38 nM; TF-1 IC50 0.064 nM; details: tags: human NGF; chain copies: 2
Description: as §1, §2

NT-4/5 = target: T2, NT-4/5 (human, UniProt P34130 P34130:81-210); test: cell_activity; TF-1 TrkB proliferation; SPR showed very fast dissociation; details: tags: R&D Systems; chain copies: 2
T2 sequence: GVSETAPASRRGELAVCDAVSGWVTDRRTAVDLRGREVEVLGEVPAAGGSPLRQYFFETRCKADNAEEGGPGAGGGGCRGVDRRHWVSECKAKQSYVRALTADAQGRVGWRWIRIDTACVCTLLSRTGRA
Description: (§3) The physiological inhibitory activity of the aptamers represented by aptamer IDs: 26(2), 52, 63-65 against BDNF, NT-3, NT-4/5 was evaluated by a growth inhibition assay using TF-1 cells.
(§4) Human receptor genes (TrkB, TrkC, p75) for respective neurotrophic factors were introduced into TF-1 cells (ATCC Number:CRL-2003), which is a human erythroleukemic cell line, by using a retrovirus vector to give cells that highly express these receptors stably. TF-1 cells introduced with TrkB and p75 were used for the evaluation of inhibitory activity against BDNF, TF-1 cells introduced with TrkC and p75 were used for the evaluation against NT-3, and TF-1 cells introduced with TrkB alone were used for the evaluation against NT-4/5. These cells were suspended in an RPMI-1640 medium containing 20% fetal bovine serum, and seeded in a white 96 well flat-bottom plate at 1000 cells (50 μL) per well. […] With the amount of luminescence per well obtained by the addition of BDNF or NT-3 or NT-4/5 alone and culture of the cells for 3 days as inhibitory activity 0%, and that of the cell obtained by culture for 3 days without addition of BDNF or NT3 or NT-4/5 as inhibitory activity 100%, the inhibitory activity of the aptamer was calculated from the amount of luminescence per well obtained by culturing with the addition of BDNF or NT3 or NT-4/5 and the aptamer in mixture. […]

BDNF = target: T3, BDNF (human, UniProt P23560 P23560:129-247); test: cell_activity; TF-1 TrkB/p75 proliferation; SPR showed very fast dissociation; details: tags: R&D Systems; chain copies: 2
T3 sequence: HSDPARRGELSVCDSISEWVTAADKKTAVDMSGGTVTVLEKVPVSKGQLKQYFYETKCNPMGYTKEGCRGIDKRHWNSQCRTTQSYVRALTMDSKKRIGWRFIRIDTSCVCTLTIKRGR
Description: as §3, §4

[10] = target: T1, NGF (nerve growth factor); test: cell_activity; neurite outgrowth, NGF 0.38 nM; TF-1 IC50 0.319 nM; details: tags: human NGF; chain copies: 2
Description: as §1, §2

[11] = target: T1, NGF (nerve growth factor); test: cell_activity; neurite outgrowth, NGF 0.38 nM; TF-1 IC50 0.285 nM; details: tags: human NGF; chain copies: 2
Description: as §1, §2

[12] = target: T1, NGF (nerve growth factor); test: cell_activity; neurite outgrowth, NGF 0.38 nM; TF-1 IC50 0.158 nM; details: tags: human NGF; chain copies: 2
Description: as §1, §2

[13] = target: T1, NGF (nerve growth factor); test: cell_activity; neurite outgrowth, NGF 0.38 nM; TF-1 IC50 0.122 nM; details: tags: human NGF; chain copies: 2
Description: as §1, §2

[14] = target: T1, NGF (nerve growth factor); test: cell_activity; neurite outgrowth, NGF 0.38 nM; TF-1 IC50 0.130 nM; details: tags: human NGF; chain copies: 2
Description: as §1, §2

[15] = target: T1, NGF (nerve growth factor); test: cell_activity; neurite outgrowth, NGF 0.38 nM; TF-1 IC50 0.131 nM; details: tags: human NGF; chain copies: 2
Description: as §1, §2

[16] = target: T1, NGF (nerve growth factor); test: cell_activity; neurite outgrowth, NGF 1.1 nM; TF-1 IC50 1.2 nM; details: tags: human NGF; chain copies: 2
Description: as §1, §2

[17] = target: T1, NGF (nerve growth factor); test: cell_activity; neurite outgrowth, NGF 1.1 nM; TF-1 IC50 1.5 nM; details: tags: human NGF; chain copies: 2
Description: as §1, §2

[18] = target: T1, NGF (nerve growth factor); test: cell_activity; neurite outgrowth, NGF 1.1 nM; TF-1 IC50 7.0 nM; details: tags: human NGF; chain copies: 2
Description: as §1, §2

[19] = target: T1, NGF (nerve growth factor); test: cell_activity; neurite outgrowth, NGF 1.1 nM; TF-1 IC50 1.7 nM; details: tags: human NGF; chain copies: 2
Description: as §1, §2

[20] = target: T1, NGF (nerve growth factor); test: cell_activity; neurite outgrowth, NGF 1.1 nM; TF-1 IC50 4.2 nM; details: tags: human NGF; chain copies: 2
Description: as §1, §2

T1 sequence (P01138 122-241, one chain of several): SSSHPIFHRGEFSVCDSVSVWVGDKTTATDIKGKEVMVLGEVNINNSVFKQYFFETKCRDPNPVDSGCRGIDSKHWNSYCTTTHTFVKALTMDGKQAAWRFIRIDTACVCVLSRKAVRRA

B1: aptamer ID 26(48) (ssRNA)
RNA: GGGAGACUCGCCAGAGUUGAAAGAAACCCAAAUAAGUGUGCGCAC
modifications: 5' and 3' idT; 2'-OMe purines except ribo g3,g19,a20,a26; 2'-OMe c7,c11,c12,u17,u18,u33,u37,c45; other pyrimidines 2'-F
IC50 [1]: 0.053 nM

B2: aptamer ID 26(26) (mixed)
RNA: GGGAGACUCGCCAGAGUUGAAAGAAACCCAAAUAAGUGUGCGCAC
modifications: as 26(19) (5' and 3' idT; 2'-F pyrimidines; 2'-OMe purines except ribo g3,g19,a20,a26) but u17 is dT
IC50 [2]: 0.285 nM

B3: aptamer ID 26(58) (mixed)
RNA: GGGAGACUCGCCAGAGUUGAAAGAAACCCAAAUAAGUGUGCGCAC
modifications: 5' and 3' idT; 2'-OMe purines except ribo g3,g19,a20,a26; 2'-F c27,c28,u39,c41; dC29,dC43; other pyrimidines 2'-OMe
IC50 [3]: 0.143 nM

B4: aptamer ID 26(24) (mixed)
RNA: GGGAGACUCGCCAGAGUUGAAAGAAACCCAAAUAAGUGUGCGCAC
modifications: as 26(19) (5' and 3' idT; 2'-F pyrimidines; 2'-OMe purines except ribo g3,g19,a20,a26) but c11 is dC
IC50 [4]: 0.226 nM

B5: aptamer ID 26(25) (mixed)
RNA: GGGAGACUCGCCAGAGUUGAAAGAAACCCAAAUAAGUGUGCGCAC
modifications: as 26(19) (5' and 3' idT; 2'-F pyrimidines; 2'-OMe purines except ribo g3,g19,a20,a26) but c12 is dC
IC50 [5]: 0.29 nM

B6: aptamer ID 26(28) (mixed)
RNA: GGGAGACUCGCCAGAGUUGAAAGAAACCCAAAUAAGUGUGCGCAC
modifications: as 26(19) (5' and 3' idT; 2'-F pyrimidines; 2'-OMe purines except ribo g3,g19,a20,a26) but u33 is dT
IC50 [6]: 0.2 nM

B7: aptamer ID 26(23) (mixed)
RNA: GGGAGACUCGCCAGAGUUGAAAGAAACCCAAAUAAGUGUGCGCAC
modifications: as 26(19) (5' and 3' idT; 2'-F pyrimidines; 2'-OMe purines except ribo g3,g19,a20,a26) but c9 is dC
IC50 [7]: 0.229 nM

B8: aptamer ID 26(60) (ssRNA)
RNA: GGGAGACUCGCCAGAGUUGAAAGAAACCCAAAUAAGUGUGCGCAC
modifications: 5' and 3' idT; 2'-OMe purines except ribo g3,g19,a20 and 2'-F a26; 2'-F c27,c28,c29,u39,c41,c43; other pyrimidines 2'-OMe
IC50 [8]: 0.105 nM

B9: aptamer ID 26(65) (mixed)
RNA: GGGAGACUCGCCAGAGUUGAAAGAAACCCAAAUAAGUGUGCGCAC
modifications: 5' PEG80TS4 via ssH linker; 3' idT; 2'-OMe purines except ribo g3,g19,a20,a26; 2'-F c28,c41,c43; dC27,dC29; other pyrimidines 2'-OMe
IC50 [9]: 0.091 nM

B10: aptamer ID 26(2) (ssRNA)
RNA: GGGAGACUCGCCAGAGUUGAAAGAAACCCAAAUAAGUGUGCGCAC
modifications: 5' and 3' idT; 2'-F all pyrimidines; 2'-OMe purines except ribo g3,g5,g19,a20,a21,a22,a24,a26
IC50 (NT-4/5): > 300 nM | IC50 (BDNF): > 1000 nM

B11: aptamer ID 26(70) (ssRNA)
RNA: GGGAGACUCGCCAGAGUUGAAAGAAACCCAAAUAAGUGUGCGCAC
modifications: 5' PEG80TS4 via ssH linker; 3' idT; 2'-F all pyrimidines; 2'-OMe purines except ribo g3,g19,a20,a26
IC50 [10]: 0.126 nM

B12: aptamer ID 26(67) (ssRNA)
RNA: GGGAGACUCGCCAGAGUUGAAAGAAACCCAAAUAAGUGUGCGCAC
modifications: 5' PEG40TS2 via ssH linker; 3' idT; 2'-F all pyrimidines; 2'-OMe purines except ribo g3,g19,a20,a26
IC50 [11]: 0.153 nM

B13: aptamer ID 26(27) (mixed)
RNA: GGGAGACUCGCCAGAGUUGAAAGAAACCCAAAUAAGUGUGCGCAC
modifications: as 26(19) (5' and 3' idT; 2'-F pyrimidines; 2'-OMe purines except ribo g3,g19,a20,a26) but c29 is dC
IC50 [12]: 0.15 nM

B14: aptamer ID 26(56) (mixed)
RNA: GGGAGACUCGCCAGAGUUGAAAGAAACCCAAAUAAGUGUGCGCAC
modifications: 5' and 3' idT; 2'-OMe purines except ribo g3,g19,a20,a26; 2'-F c27,c28,c41,c43; dC29,dU39; other pyrimidines 2'-OMe
IC50 [13]: 0.154 nM

B15: aptamer ID 26(57) (mixed)
RNA: GGGAGACUCGCCAGAGUUGAAAGAAACCCAAAUAAGUGUGCGCAC
modifications: 5' and 3' idT; 2'-OMe purines except ribo g3,g19,a20,a26; 2'-F c27,c28,u39,c43; dC29,dC41; other pyrimidines 2'-OMe
IC50 [14]: 0.213 nM

B16: aptamer ID 26(29) (mixed)
RNA: GGGAGACUCGCCAGAGUUGAAAGAAACCCAAAUAAGUGUGCGCAC
modifications: as 26(19) (5' and 3' idT; 2'-F pyrimidines; 2'-OMe purines except ribo g3,g19,a20,a26) but u37 is dT
IC50 [15]: 0.138 nM

B17: aptamer ID 57(1) (mixed)
mixed: GGGAUAAAAAUAGAGTUUGATAAACACCUGUAUUAAAACCC
modifications: as ID 57 (5' cholesterol; 3' idT; dT16,dT21; 2'-F other pyrimidines and a37,a38; 2'-OMe purines except ribo a4,a7,g30) plus PS between 15 and 16
IC50 [16]: < 3 nM

B18: aptamer ID 57(3) (mixed)
mixed: GGGAUAAAAAUAGAGTUUGATAAACACCUGUAUUAAAACCC
modifications: as ID 57 (5' cholesterol; 3' idT; dT16,dT21; 2'-F other pyrimidines and a37,a38; 2'-OMe purines except ribo a4,a7,g30) plus PS between 19 and 20
IC50 [17]: < 3 nM

B19: aptamer ID 57(9) (mixed)
mixed: GGGAUAAAAAUAGAGTUUGATAAACACCUGUAUUAAAACCC
modifications: as ID 57 (5' cholesterol; 3' idT; dT16,dT21; 2'-F other pyrimidines and a37,a38; 2'-OMe purines except ribo a4,a7,g30) plus PS between 29 and 30
IC50 [18]: < 3 nM

B20: aptamer ID 57(5) (mixed)
mixed: GGGAUAAAAAUAGAGTUUGATAAACACCUGUAUUAAAACCC
modifications: as ID 57 (5' cholesterol; 3' idT; dT16,dT21; 2'-F other pyrimidines and a37,a38; 2'-OMe purines except ribo a4,a7,g30) plus PS between 21 and 22
IC50 [19]: < 3 nM

B21: aptamer ID 57(4) (mixed)
mixed: GGGAUAAAAAUAGAGTUUGATAAACACCUGUAUUAAAACCC
modifications: as ID 57 (5' cholesterol; 3' idT; dT16,dT21; 2'-F other pyrimidines and a37,a38; 2'-OMe purines except ribo a4,a7,g30) plus PS between 20 and 21
IC50 [20]: < 3 nM
